Results from the supplement of paper PMC12764529.
± gives the half width of the 95% confidence interval.

Key:
[1] = folding stability dG unfold from trypsin proteolysis; higher = more stable
Method in brief: (§1)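 Only designs with AlphaFold2 dimer inter-PAE above 15 were retained; each was a mini-protein under 80 residues with no cysteine, in a PA-tagged cDNA display construct. After digestion with trypsin and chymotrypsin and sequencing, K50 was inferred by Bayesian fitting of counts, and unfolding free energy was derived per protease or combined against a sequence-predicted unfolded-state K50 and a shared folded-state K50.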

[2] = folding stability dG unfold from chymotrypsin proteolysis; higher = more stable
Method in brief: as §1

[3] = folding stability dG unfold (combined trypsin and chymotrypsin); higher = more stable
Method in brief: as §1

Sequence | folding stability dG unfold [1] | folding stability dG unfold [2] | folding stability dG unfold [3]
SAGGSAMLTLLYRVPPGDPLAHAREIAEALEERFGAKVRILDVKVERDPVTREVYIPVVVELELPESAGGSA [r15_70_TrMRF] | 0.856 ± 0.074 kcal/mol | 1.3 ± 0.16 kcal/mol | 1.14 ± 0.17 kcal/mol
SAGGSAMLVFKITIKNPETNETIELEIEAETLEEAKEAIEKLIAELTGKEPTEIKIEVVEIKEEDLSAGGSA [r15_670_TrROS_Hall] | 4.09 ± 0.35 kcal/mol | 4.47 ± 0.3 kcal/mol | 4.42 ± 0.27 kcal/mol
SAGGSAMLVIEIEVDGKKVTLVIEVPPEMTEEEIRELAEELAERLRALPGVKEVKVKIERVPPPPESAGGSA [r15_246_TrROS_Hall] | 4.06 ± 0.22 kcal/mol | 3.56 ± 0.18 kcal/mol | 3.85 ± 0.26 kcal/mol
SAGGSAMLVKVTITLKKGGKEYTLEQFVEVNPPDLKIEIPPEIKEKGWEIVDIEVEEITPEEAERKSAGGSA [r15_853_JUSTAS] | 1.24 ± 0.091 kcal/mol | 3.19 ± 0.039 kcal/mol | 2.8 ± 0.28 kcal/mol
SAGGSAMLVVADDPEVVRELVEPLFPDGEPVLVVGATEEEAAKLVEELKKKGLPFKVVVVRRPDRPSAGGSA [r15_567_TrMRF] | 0.932 ± 0.048 kcal/mol | -0.039 ± 0.23 kcal/mol | 0.657 ± 0.14 kcal/mol
SAGGSAMMLAKVKIELPNGEIVEIPIEFESLEELEEKIKEKARELFPDIPIEDIKILDIELYSLEESAGGSA [r15_220_TrMRF] | 4.06 ± 0.27 kcal/mol | 5.32 ± 0.13 kcal/mol | 5.31 ± 0.34 kcal/mol
SAGGSAMMTLEEAIEKAAKNIPVGEKKIIEIKLEKGTFTVEIEKIGPKEVKIKILKISKGPEEEEISAGGSA [r15_150_TrMRF] | 3.99 ± 0.23 kcal/mol | 4.68 ± 0.18 kcal/mol | 4.61 ± 0.3 kcal/mol
SAGGSAMPEDTPFVVTKTTEYRLPDGSRVTFEPVPETGKTLVTFTPPDGSSERVWLTPEEAEKLLASAGGSA [r15_2_JUSTAS] | 1.11 ± 0.02 kcal/mol | 1.3 ± 0.1 kcal/mol | 1.22 ± 0.11 kcal/mol
SAGGSAMPLLIVDKNNNVTLISASSPEELEELLKKYNIKKIEPFPFPDGKALVFIAEYPDGIIYSGSAGGSA [r15_632_TrMRF] | 1.3 ± 0.02 kcal/mol | 1.65 ± 0.047 kcal/mol | 1.52 ± 0.049 kcal/mol
SAGGSAMPVVELPIGPELYEKIKEAAEAGDPDKVITLPLKLPNGEEVTLVVEADPATPEFRARVELSAGGSA [r15_700_TrMRF] | -0.683 ± 0.1 kcal/mol | 0.397 ± 0.085 kcal/mol | 0.105 ± 0.096 kcal/mol
SAGGSAMQQLDITKTKWDPNTGTLSVTAKDPLTGEVTTYTIPRNGPTLNFPPGAELKSVETEPPPLSAGGSA [r15_959_JUSTAS] | 0.0912 ± 0.28 kcal/mol | -0.368 ± 0.37 kcal/mol | -0.0792 ± 0.27 kcal/mol
SAGGSAMSITISDISSVKNLTITETTPDGTPVTVTVNATTGSGPPTLTFTATTPGTGATTTTTTAFSAGGSA [r15_1006_JUSTAS] | 0.693 ± 0.014 kcal/mol | -0.299 ± 0.099 kcal/mol | 0.38 ± 0.051 kcal/mol
SAGGSAMSLEELKGHLVRLTLPDGRVVVAPVKEMDEEAPVLVIEFGGKPILIPKDAPVKLEVLPPGSAGGSA [r15_355_TrMRF] | 0.962 ± 0.039 kcal/mol | 0.581 ± 0.052 kcal/mol | 0.759 ± 0.062 kcal/mol
SAGGSAMSPEEVEEKIKEIAKKLGVEIEVKVEISPEGGIKITVKVNDKFDINEIKKGIEEALGIKLSAGGSA [r15_807_JUSTAS] | 4.4 ± 0.55 kcal/mol | 2.65 ± 0.16 kcal/mol | 3.94 ± 0.45 kcal/mol
SAGGSAMSVTLTFEEPVGPGVPVKVTVTVERFPDSVKVTVTTTFPDGTVTTTPVSLKLEPAAVDLLSAGGSA [r15_263_JUSTAS] | 2.44 ± 0.11 kcal/mol | 2.694 ± 0.022 kcal/mol | 2.54 ± 0.082 kcal/mol
SAGGSAMTAEEVEEKVREAFAALGVEAEVEVRESPEGGLEVLVVTGEDADLEEVKAALEELFGTDISAGGSA [r15_807_TrMRF] | 2.51 ± 0.12 kcal/mol | 2.5 ± 0.064 kcal/mol | 2.48 ± 0.078 kcal/mol
SAGGSAMTIEIVVPTLEAIEKLAEETGAEVVEVRFFEEEGLVVVRIKVPESKEELLEKIREALGLESAGGSA [r15_118_TrROS_Hall] | 2.17 ± 0.069 kcal/mol | 2.1 ± 0.092 kcal/mol | 2.11 ± 0.1 kcal/mol
SAGGSAMTIEKREDGYLVITVDVPPGTSPEELAERLKKLFPNEEVTVTVVKDGKLVKEFVIKAEDLSAGGSA [r15_1047_TrROS_Hall] | 2.25 ± 0.056 kcal/mol | 2.06 ± 0.034 kcal/mol | 2.2 ± 0.071 kcal/mol
SAGGSAMTLEEARELVERLVRELFPDAEVLDVDAVRLPDRLVLVDAVVRPKYRPDEVLRFRFLLGDSAGGSA [r15_627_TrMRF] | 3.53 ± 0.1 kcal/mol | 4.106 ± 0.032 kcal/mol | 3.94 ± 0.06 kcal/mol
SAGGSAMTLRLELRVRLQVFNEDGELLGERELDIEIELEGEPLEVPPPPEIDPEEAARLLGLDPDGSAGGSA [r15_572_TrMRF] | 0.909 ± 0.098 kcal/mol | 2.84 ± 0.039 kcal/mol | 2.37 ± 0.25 kcal/mol
SAGGSAMTTIVKTEPPTLDEEGNPYIRLTIKFPNGGTTTITLAPSELPQYLADLPPGFEVEEINPLSAGGSA [r15_339_JUSTAS] | 2.41 ± 0.11 kcal/mol | 2.69 ± 0.038 kcal/mol | 2.65 ± 0.11 kcal/mol

Sequence | folding stability dG unfold [1] | folding stability dG unfold [2] | folding stability dG unfold [3]
SAGGSAMTTVTWTFPPSTSVEEAIEALKAQLEAERNEKIEIPSISVSTTGDTITVTLPIKIEPLPASAGGSA [r15_105_JUSTAS] | 1.86 ± 0.049 kcal/mol | 0.327 ± 0.22 kcal/mol | 1.26 ± 0.14 kcal/mol
SAGGSAMTVEELKELFPGYPITEITDFQPVDGWYTLSIKYPNNGKKRQINVEGMPPELAKEIMELISAGGSA [r15_830_TrROS] | 0.161 ± 0.036 kcal/mol | -0.394 ± 0.21 kcal/mol | 0.0457 ± 0.098 kcal/mol
SAGGSAMTVTKVGSETKTDPAKGIVTTTEITKLPTGGLTKTVTTTTIEGGKVKSSTTTTTAIPVGTSAGGSA [r15_283_JUSTAS] | -0.156 ± 0.061 kcal/mol | 0.266 ± 0.065 kcal/mol | 0.104 ± 0.085 kcal/mol
SAGGSAMTVTVELEFEPVTVTDADGKEREVPVRVKVTAKVELVRDPETGELVERVEVTSIEIEVEPSAGGSA [r15_884_TrROS_Hall] | 1.73 ± 0.069 kcal/mol | 1.92 ± 0.079 kcal/mol | 1.87 ± 0.15 kcal/mol
SAGGSAMTVTYTPSTKTITITDPSNGKPVKVTVTEEKPVVPGKNVYELTVTVPDTGGEKKILITLPSAGGSA [r15_209_JUSTAS] | 0.848 ± 0.055 kcal/mol | -0.192 ± 0.15 kcal/mol | 0.55 ± 0.11 kcal/mol
SAGGSAMTVVKVTLKSPSGTTTVTLPAEEWERFLAAPEVSKTWTLTEVVEEEEPPPELDPEAVELGSAGGSA [r15_460_JUSTAS] | 0.626 ± 0.11 kcal/mol | 1.12 ± 0.15 kcal/mol | 0.864 ± 0.3 kcal/mol
SAGGSAMTYTITLKTPGSQSLELSLDEKLKLLSQTIDPNTGVTTLTLEGDPEEAKKLEQEIKEKLASAGGSA [r15_662_JUSTAS] | 1.56 ± 0.059 kcal/mol | 1.66 ± 0.11 kcal/mol | 1.56 ± 0.17 kcal/mol
SAGGSAMVDKTMTEEEARAFAEASGDPRVTVEPVENPNNDPNAPKKWRITVDGSGTPGSTILFTSPSAGGSA [r15_428_JUSTAS] | -0.398 ± 0.12 kcal/mol | -0.928 ± 0.28 kcal/mol | -0.55 ± 0.089 kcal/mol
SAGGSAMVRLPDGTLVIDVKLPEDRPDAKVTVTVLEDGSPVGSVDVNTGKVTISVSPGVSVSITVESAGGSA [r15_180_JUSTAS] | 2.12 ± 0.051 kcal/mol | 1.53 ± 0.046 kcal/mol | 1.79 ± 0.052 kcal/mol
SAGGSAMVSLEEAKEATLREVKAALGFSPDATPEELRARGVPVRVPITVRDEKGNVIAELELELPGSAGGSA [r15_391_JUSTAS] | -0.118 ± 0.04 kcal/mol | 0.571 ± 0.046 kcal/mol | 0.37 ± 0.039 kcal/mol
SAGGSAMYTVTLTLPPSLAIPPDSTITVTFPDGSTETYSVDSGPVTITLTAPADGSTSVGVSLSVPSAGGSA [r15_992_JUSTAS] | 2.6 ± 0.097 kcal/mol | 3.67 ± 0.04 kcal/mol | 3.27 ± 0.1 kcal/mol
SAGGSANFNVKLEIKIIERNPGNPDYVIVRIKVEHRHPNPDGNPMEHRRPIPWIMITDPEEIKEFISAGGSA [r15_1019_TrROS] | 2.32 ± 0.12 kcal/mol | 2.39 ± 0.029 kcal/mol | 2.36 ± 0.084 kcal/mol
SAGGSANGKRVEVPITIFFYRRDPEDGKWEPIFPFEIPIRIPVPPGAEVTIEIEFTGNMFRITIEVSAGGSA [r15_537_TrROS] | 3.19 ± 0.11 kcal/mol | 4.53 ± 0.094 kcal/mol | 4.09 ± 0.13 kcal/mol
SAGGSANLPPGQPKIITITIPLGEEVRNPDGEPMTPEDIADNFQERFGNIEVEKSPNGWLEVTFWLSAGGSA [r15_645_TrROS] | 1.3 ± 0.06 kcal/mol | 0.637 ± 0.15 kcal/mol | 1.18 ± 0.19 kcal/mol
SAGGSANVQVEQTGDGKIKIEFPWYGAEITLNPKKGDIEVEVLPNYKNGQPPPEDEVKNLAKEILDSAGGSA [r15_735_TrROS] | -0.0532 ± 0.092 kcal/mol | 0.971 ± 0.047 kcal/mol | 0.739 ± 0.13 kcal/mol
SAGGSAPAKVEPLRVKIEFTPPNGEKHTFPMEIHRVHDNAIEIQDGGQPIRIPPNLDNIQITDIELSAGGSA [r15_510_TrROS] | -0.614 ± 0.34 kcal/mol | 0.558 ± 0.044 kcal/mol | 0.356 ± 0.14 kcal/mol
SAGGSAPDDVEVEIKNIHYNPNWGYIMITIKVDGPVDSIEIELPNGWEISVMRDKDGTMTIMFPFPSAGGSA [r15_736_TrROS] | 2.43 ± 0.1 kcal/mol | 3.29 ± 0.18 kcal/mol | 3.15 ± 0.32 kcal/mol
SAGGSAPEDNYVVLIFIDISIEWKPKYDEDNGKNRIEFEWKLEIDIPTIVLPPDDPEAKDLLEDLLSAGGSA [r15_470_TrROS] | 2.29 ± 0.067 kcal/mol | 3.35 ± 0.14 kcal/mol | 2.94 ± 0.12 kcal/mol
SAGGSAPEIPTDALVRVRDPNSDKWYEATVLEARKLPGGELVYLIRLTKDGNEELVPTDLATVELKSAGGSA [r15_62_JUSTAS] | 1.05 ± 0.08 kcal/mol | 1.53 ± 0.12 kcal/mol | 1.29 ± 0.098 kcal/mol
SAGGSAPIRIIKDPEKGTIMIRVPGPITVNQELKLRDENGKPWEIKNVEVERVGGRLIITMKVEPASAGGSA [r15_838_TrROS] | 1.19 ± 0.052 kcal/mol | 1.24 ± 0.19 kcal/mol | 1.29 ± 0.11 kcal/mol
SAGGSAPKIRVEIEIDPDNGTIKLEVQHDGKPVFEMTMRIDPNGKIKEMKFTFYVDPDNGKLEIMMSAGGSA [r15_770_TrROS] | 3.68 ± 0.25 kcal/mol | 4.59 ± 0.26 kcal/mol | 4.43 ± 0.17 kcal/mol
